One test concerns the target BRD4 BD1 BD1 (Homo sapiens, UniProt O60885, ZZ1-SO2H).
Test [1] has as its target biotinylated YPEL5–WDR26^ΔCTLH complex (AviTag on WDR26^ΔCTLH) (UniProt Q9H7D7 1-661; P62699 1-121, biotin on the C-terminal AviTag (BirA)). Put plainly: BLI.

B1: YPEL5 (protein)
chain: MGRIFLDHIGGTRLFSCANCDTILTNRSELISTRFTGATGRAFLFNKVVNLQYSEVQDRVMLTGRHMVRDVSCKNCNSKLGWIYEFATEDSQRYKEGRVILERALVRESEGFEEHVPSDNS
On to B1, for which, in the test with BRD4 BD1 BD1, the dissociation constant Kd (commonly the concentration at which binding is half-saturated) was about 0.012 µM.

B2: BD1 domain of BRD3 (domain or fragment)
chain: not shown
The molecule B2 displayed a dissociation constant (Kd) in test [1] of 0.0232 µM.

B3: BD1 domain of BRD2 (domain or fragment)
chain: not shown
The molecule B3 returned a Kd in test [1] of 0.0164 µM. The Kd values of the last two molecules are within 1.5-fold of each other.

Values taken from PMC13355314 (2026).
